Experimental data: the nanobody polyreactivity screen of Harvey et al. (2022)

Experiment: yeast display, Sf9 membrane polyspecificity reagent, FACS + sequencing; frameworks hold sequencing errors
Summary of the method: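 In a synthetic yeast display library (Saccharomyces cerevisiae BJ5465), nanobody expression was induced with galactose for 36–48 hours. FACS gates were set low and high (top ~1%) using anti-HA fluorescence for expression and streptavidin fluorescence for binding of the Sf9 membrane reagent. Each polyreactivity label is drawn from the gate of origin.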

**Q.** With “QGQLVESGGGLVQAGGSLRLSCAASGSIFPGYTMGWYRQAPGKERELVAVISSDGRTHYADSVKGRFTISRDNAKNTVYLQMNSLKPEDSAVYYCAAAKRAYGYVLHAFYYWGQGTQVTVSS” as the sequence, how does the “polyreactivity (PSR sort gate)” value read?
**A.** high polyreactivity

**Q.** For “QVQLVESGGGLVQAGGSLRLSCAASGSTFGSYAMGWYRQAPGKVRELVASIRSSGTSTYYADSVKGRFTISRDNAKNTVYLQMNSLKPEDTAVYYCAKRYFTWRSTYNYWGQGTQVTVSS”, which “polyreactivity (PSR sort gate)” value is on record?
**A.** high polyreactivity

**Q.** With “QVQLVESGGGLVQAGGSLRLSCAASGRTFYGNAMGWYRQAPGKERELVAAISYRTGRTYYADSVKGRFTISRDNAKNTVYLQMNSLKPEDTAVYYCAADLHSRDDYWGQGTKVTVSS” as the sequence, how does the “polyreactivity (PSR sort gate)” value read?
**A.** high polyreactivity

**Q.** Which “polyreactivity (PSR sort gate)” value does the source give for “QVQRVESGGGLVQAGGSLRLRCAASGFTLGHYAMGWYRQAPGTERELVAVITSGSSTNYADSVKGRFTISRDNAKNTVYLQMNSLKPEDTAVIYCAAEHPYFIWLYYYWGQGTQVTVSS” here?
**A.** low polyreactivity

**Q.** For “QVQLVESGGGLVQAGGSLRLSCAASGSTFDYYAMGWYRQAPGKVRELGAAITTSGGSTYYADSVKGRFTISRDNAKNTVYLQINCLKPEDTAVYYCAAESYWYGTSPYYYLYEYDYWGQGTQVTVSS”, which “polyreactivity (PSR sort gate)” value is on record?
**A.** high polyreactivity

**Q.** For “QVQLVESGGGLVQAGGSLRLSCAASGRIFVVYAMGWSRQAPGKERELVAAIRSGGSTNYADSVKGRFTISRDNAKNTVYFQLNSLKPEDTAVYNCAARKWHSAYDYWGQGTQVTVSS”, which “polyreactivity (PSR sort gate)” value is on record?
**A.** high polyreactivity

**Q.** With “QVQLVESGGGLVQAGGSLRLSCAASGRTVYRYAMGWYRQAPGKERELVAAITGSGSSTYYADSVKGRFTISRDNAKNTVYLQMNSLKPEDTAVYYCAAARPRLGSAGKFGYWGQGTQVTVSS” as the sequence, how does the “polyreactivity (PSR sort gate)” value read?
**A.** high polyreactivity

**Q.** Which “polyreactivity (PSR sort gate)” value does the source give for “QVQLVESGGGLVQAGGSLRISCAASGSTFFLYAMGWYRQAPGKERELVAAISTTGGSTNYADSVKGRFTISRDNAKYTFELQINSLKPEDTAVYYCAAGPSAQSIYDHWGQGTQVTVSS” here?
**A.** low polyreactivity

**Q.** For “QVQLVESGVGLVQAGGSLRLICAASGRNFRTNAMGWYRQAPGKERELVAAISTGGGITKYADSVKGRFTISRDNSKNTVYLQMNSLKPEDTAVYYCAADAVNTLDYWGQGTQVTVSS”, which “polyreactivity (PSR sort gate)” value is on record?
**A.** low polyreactivity

**Q.** Which “polyreactivity (PSR sort gate)” value does the source give for “QVQLVESGGGLVQAGGSLRLSCAASGFTFVVYDMGWYRQAPGKESELVAVINNSGGSTYYADSVKGRFTISRDNAKNTVSLQMNSLKPEDTAVYYCATRTPVWVNTESDYWGQGTQVTVSS” here?
**A.** low polyreactivity

**Q.** With “QVQLVESGGGLVQAGGSLRLSCAASGSTLRGYAMGWYRQAPGKERELVAAITYISDSTYYADSVKGRFTISRDNAKNTVYLQMNSLKPEDTAVYYCNAYYDGDWRYTSQETGDHWGQGTQVTVSS” as the sequence, how does the “polyreactivity (PSR sort gate)” value read?
**A.** low polyreactivity

**Q.** For “QVQLVESGGGLVQAGGSLRLSSAASGGTFGFNAMGWYRQAPGKERELVSGISSRGGSTYYADSVKGRFTISRDYAKNTVYLQMNSLKPEDTAVYYCNARQYPGRSWYRYDYWGQGTQVTVSS”, which “polyreactivity (PSR sort gate)” value is on record?
**A.** high polyreactivity

**Q.** For “QVQLVESGGGLVQAGGSLRLSCAPSGRTFWSYAMGWYRQAPGKERELVAAISLDDGTTYYADSVKGRFTISRDNAKNTVYLQMNSLKPEDTAVYDCAAEREQGDDGYGPDYGYWGQGTQVTVSS”, which “polyreactivity (PSR sort gate)” value is on record?
**A.** high polyreactivity

**Q.** Which “polyreactivity (PSR sort gate)” value does the source give for “QVQLVESGGGLGQAGASLRLICAPSGSIFLIYCMGWYRQSPGKERELVAAITARGGSTYYADSVKGSFTISRDNAKNTVYLQMNSLKPEDTSVYYCNDVGYPDVGAGTYGYWGQGTQVTVSS” here?
**A.** low polyreactivity

**Q.** For “QVQLVESGGGLVQAGGSLRLSCAASGRTFHVYARGWYRQAPGKERELVAAISGRTGSTYYADSVKGRFTISRDNAKNTVYLQMNSLKPEDTAVYYCAARRWSHGTGYGSWGQGTQVTVSS”, which “polyreactivity (PSR sort gate)” value is on record?
**A.** high polyreactivity

**Q.** Which “polyreactivity (PSR sort gate)” value does the source give for “QVQLVESGGGLVQAGGSLRLSCAASGITFTRYGMGWYRQAPGKERELVAVISSSGGRTYYADSVKGRFTISRDNAKNTVYLQMNSLKPEDTAVYYCATVRVLAKYRPKMDYWGQGTQVTVSS” here?
**A.** high polyreactivity

**Q.** With “QVQLVESWGGLVQAGRSLRLSCAASGRTFYNYAMGWYRQAPGKERELVAAITRGGSTYYADSVKGRFTISRDNAKNTVYLHMNSLKPEDTAVYFCNAKYIKGRDWGQGTQVTVSS” as the sequence, how does the “polyreactivity (PSR sort gate)” value read?
**A.** high polyreactivity

**Q.** Which “polyreactivity (PSR sort gate)” value does the source give for “QVQLVESGGGLVQAGGSLRLRCAPSGFIFIFNAMGWYRQAPGKERELVAAIDTSDDSTYYADSVKGRFTISRDNAKNTVYLQMNSLKPEDTAVYYCAAEELSNYEYWGQGTQVTVSS” here?
**A.** low polyreactivity

**Q.** For “QVQLVESGGGLVQAGGSLRLSCAASGSIFYWYAMGWYRQAPGKERELVAAITRAGSTNYADSVKGRFTISRDNAKNTVYLQMNSLKPEDTAVYYCAVAVTSYSSKKLYYWGQGTQVTVSS”, which “polyreactivity (PSR sort gate)” value is on record?
**A.** low polyreactivity

**Q.** With “QVQLVESGGGLVQAGGSLRLSCAASGYIFRHYAMVWYRQAPGKERELVAAISSSGGRTNYADSLKGRFTISRDNAKITVYLQMNSLKPEDTAVYYCNAGRYQYLGGYGYWGQGTQVTVSS” as the sequence, how does the “polyreactivity (PSR sort gate)” value read?
**A.** low polyreactivity

**Q.** For “QVQLVESGSGLVQAGGSLRLSCAHSGFTVSYYVMGWYRQAPGKERELVAAISWSGGSTYYADSVKGRFTISLDNAKNTVYLQMNSLKPEDTAFYYCNADDWRDDYEYWGQGTQVTVSS”, which “polyreactivity (PSR sort gate)” value is on record?
**A.** high polyreactivity

**Q.** With “QVQLLESGGGLVQAGGSLRLSCAASGLIFERYAMGWYRQAPGKERELVAAITRRGGSTYDADSVKGRFTISRDNAKNTVYFQMNSLKPEDTAVNYCAAGRPQDTEFDYWGLGTQVTVSS” as the sequence, how does the “polyreactivity (PSR sort gate)” value read?
**A.** high polyreactivity

**Q.** Which “polyreactivity (PSR sort gate)” value does the source give for “QVQLVESGGGLVQAGGSLRLSCAASGSILGRYAMGWYRQAPGKERELVAAITSSGGRTYYADSVKGRFTISRDNAKNSVYLQMNSLKPEDTAVYYCAARYGRRLVWVPALLYDYWGQGTQVTVSS” here?
**A.** high polyreactivity

**Q.** Which “polyreactivity (PSR sort gate)” value does the source give for “QVQLVESGGGLVQAGGSLRLSCAASGSIFRYYAMGWSRQAPGKERELVAAISRRGSSTYYADSVKGRFTISRDNAKKTVYLQMNSLKPEDTAVYYCAAGDFKQYDYWGQGTQVTVSS” here?
**A.** high polyreactivity

**Q.** For “QVQLVESGGGLVQAGGSLRLSCAASGRTFGSYAMGWYRQAPGKERELVAAITWSGTGTYYADSVKGRFTISRDNAKNTVYLQMNSLKPEDTAVYYCAVYTIGYLAWYQKFDYWGQGTQVTVSS”, which “polyreactivity (PSR sort gate)” value is on record?
**A.** high polyreactivity

**Q.** Which “polyreactivity (PSR sort gate)” value does the source give for “QVQLVESGGGLVQAGGSLRLSCAASGYIFDYYAMGWYRQAPGKERELVAAISSSGGTTYYADSVKGRFTISRDNAKNTVYLQMNSLKPEDTEVYYCAARKSRWHRGYYYWGQGTQVTVSS” here?
**A.** high polyreactivity

**Q.** With “QVQLVESGGGLVQAGGSLRLSCAASGSISVDNTMGWYRQAPGKERELVAAISRSGGTTYYADSVKGRFTISRDNAKNTVYLQMNSLKPEDTAVYYCAKDTLRYRWRSYDYYPEMNYWGQGTQVTVSS” as the sequence, how does the “polyreactivity (PSR sort gate)” value read?
**A.** low polyreactivity

**Q.** For “QVQLVESVVGLVQAGGSLLISCAAYGLTFKGYAMVWYRQAPGKERELVAAITWDTGSTYYADSVKGRFSISRDNAKNTVYLQMNSLKPEDTAVYYCAAVGSTTTGVRRRGYWGHGTQVTVSS”, which “polyreactivity (PSR sort gate)” value is on record?
**A.** high polyreactivity

**Q.** For “QVQLVESGGGLVQAGGSLRLSCAASGYIFSLYAMGWYRQAPGKERELVADITTSAGSTYYADSVKGRFTISRDNAKNTVYLQMNSLKPEDTAVYYCAADVYGHTYYDYDYWGQGTQVTVSS”, which “polyreactivity (PSR sort gate)” value is on record?
**A.** low polyreactivity

**Q.** For “QVQLVESGGGLVQAGGSLRLSCAASGSIFYSYAMGWYRQAPGKEREFVATITWSGGRTYYADSVKGRFTISRDNAKNTFYLQMNSLKPEDTAVYYCNKRLFPYKGDYWGQGTQVTVSS”, which “polyreactivity (PSR sort gate)” value is on record?
**A.** low polyreactivity

**Q.** With “QVQLVESGGGLVQAGGSLRLSCAASGLTFYYYAMGWYRPAPGKERELVARISSGTSTYYADSVKGRFTISRDNAKNTVYLQMNSLKPEDTAVYYCNARRKLGSTHGPWGGLEYWGQGTQVTVSS” as the sequence, how does the “polyreactivity (PSR sort gate)” value read?
**A.** low polyreactivity

**Q.** For “QVQLVESGGGLVQAGGSLRLSCAASGFTFYYYAMGWYRQAPGKERELVATISRSGGSTYYADSVKGRFTISRDNAKNTVYLQMNSLKPEDTAVYYCAARSYKSPRDYDYWGQGTQVTVSS”, which “polyreactivity (PSR sort gate)” value is on record?
**A.** high polyreactivity

**Q.** Which “polyreactivity (PSR sort gate)” value does the source give for “QVPLVESGGGLVQAGGSLRLSCAASGLTFRDNAMGCSRQAPGKERELVAALSTNGGSTYYADSVTGRFTISRDNAKNTVYLQLNSLKPEDTALYVCAKSFLPQYPQVDSDYWGQGTQVTVSS” here?
**A.** low polyreactivity

**Q.** With “QLQLVESGGGLVQAGGSLRLSCAASGNNIVFYAMGRYRQAPGKERELVAAMTSGGSTNYADSVKGRFTISRDNAKNTVYLQMNSLKPEATAVYYCAARQWFAHRRWGGSRYDYWGQGTQGTVSS” as the sequence, how does the “polyreactivity (PSR sort gate)” value read?
**A.** low polyreactivity

**Q.** Which “polyreactivity (PSR sort gate)” value does the source give for “QVQLVESGGGLVQAGGSLRLSCAASGITFSYNVMGWYRQAPGKEREFVAAISDGGSTYYADSVKGRFTISRDNAKNTVYLQMNSLKPEDTAVYFCAKGYRYTYSQQVIYDYYYWGQGTQVTVSS” here?
**A.** low polyreactivity

**Q.** With “QVQLVESGGGLVQAGGSLRLSCAASGFTFWQYAMGWYRQAPGKERELVAAITWDGGSTYYADSVKGRFTISRDNAKNTVYLQMNSLKPEDTAVYYCAKLFGGTYYEYDYWGQGTQVTVSS” as the sequence, how does the “polyreactivity (PSR sort gate)” value read?
**A.** low polyreactivity

**Q.** Which “polyreactivity (PSR sort gate)” value does the source give for “QVQLVESGGGLVQAGGSLRLSCAASGSTFIYNAMGWYRQAPGKERELVAAISSGGSTYYADSVKGRFTISRDNAKNTVYLQMNSLKPEDTAVYYCNAYRYRHYRVDYWGQGTQVTVSS” here?
**A.** low polyreactivity

**Q.** For “QVQLVESGGGLVQAGGSLRLSCAASGSTFRVNVMGWYRQAPGKERELVAAITTSGGSTYYADSVKGRFTISRDNAKNTVYLQMNSLKPEDTAVYYCAAEGGFSPQPYNLYYATPREDYWGQGTQVTVSS”, which “polyreactivity (PSR sort gate)” value is on record?
**A.** low polyreactivity

**Q.** Which “polyreactivity (PSR sort gate)” value does the source give for “QVQLVESGGGLVQAGGSLRLSCAASGSTFGRYVMGWYRQAPGKERELVAAISKNAGSTYYADSVKGRFTISRDNAKNTVYLQMNRLKPEDTAVYYCAADWRTKGYDSLGQGTQVTVSS” here?
**A.** high polyreactivity

**Q.** With “QVQLVESGGGLVQAGGSLRLSCAASGTTFYYYAMGWYRQAPGKEREFVAAIRFSGSRTYYADSVKGRFPISRDNAKNTVYLQMNSLIPEDTAVYYCARATLPSVSYYRKLFDYWGQGTHVTVSS” as the sequence, how does the “polyreactivity (PSR sort gate)” value read?
**A.** high polyreactivity
